Measurements as given in patent US20240174727A1, “LONG-ACTING NATRIURETIC PEPTIDES AND USES THEREOF” (Eli Lilly and Company, priority 2022, published 2024).
Changes are numbered by the printed parent chain. Numbered stars: 1 amine (or outer) side, 2 acyl side, 3 side chain; on linkers, the order of the positions; unused ones are H or OH. Bridge positions count the residues as written; N and C are the ends. Square brackets hold non-standard residues; d marks the D form. Ends that are not written are not given here. * marks the point of attachment. C20 diacid = O=C(O)CCCCCCCCCCCCCCCCCCC(=O)*; γGlu = O=C(O)[C@H](CCC(=O)[*:2])N[*:1]; 4Pal = N[C@@H](Cc1ccncc1)C(=O)O

T1: human NPRA (human, UniProt P16066 33-1061)
T1 sequence (looked up): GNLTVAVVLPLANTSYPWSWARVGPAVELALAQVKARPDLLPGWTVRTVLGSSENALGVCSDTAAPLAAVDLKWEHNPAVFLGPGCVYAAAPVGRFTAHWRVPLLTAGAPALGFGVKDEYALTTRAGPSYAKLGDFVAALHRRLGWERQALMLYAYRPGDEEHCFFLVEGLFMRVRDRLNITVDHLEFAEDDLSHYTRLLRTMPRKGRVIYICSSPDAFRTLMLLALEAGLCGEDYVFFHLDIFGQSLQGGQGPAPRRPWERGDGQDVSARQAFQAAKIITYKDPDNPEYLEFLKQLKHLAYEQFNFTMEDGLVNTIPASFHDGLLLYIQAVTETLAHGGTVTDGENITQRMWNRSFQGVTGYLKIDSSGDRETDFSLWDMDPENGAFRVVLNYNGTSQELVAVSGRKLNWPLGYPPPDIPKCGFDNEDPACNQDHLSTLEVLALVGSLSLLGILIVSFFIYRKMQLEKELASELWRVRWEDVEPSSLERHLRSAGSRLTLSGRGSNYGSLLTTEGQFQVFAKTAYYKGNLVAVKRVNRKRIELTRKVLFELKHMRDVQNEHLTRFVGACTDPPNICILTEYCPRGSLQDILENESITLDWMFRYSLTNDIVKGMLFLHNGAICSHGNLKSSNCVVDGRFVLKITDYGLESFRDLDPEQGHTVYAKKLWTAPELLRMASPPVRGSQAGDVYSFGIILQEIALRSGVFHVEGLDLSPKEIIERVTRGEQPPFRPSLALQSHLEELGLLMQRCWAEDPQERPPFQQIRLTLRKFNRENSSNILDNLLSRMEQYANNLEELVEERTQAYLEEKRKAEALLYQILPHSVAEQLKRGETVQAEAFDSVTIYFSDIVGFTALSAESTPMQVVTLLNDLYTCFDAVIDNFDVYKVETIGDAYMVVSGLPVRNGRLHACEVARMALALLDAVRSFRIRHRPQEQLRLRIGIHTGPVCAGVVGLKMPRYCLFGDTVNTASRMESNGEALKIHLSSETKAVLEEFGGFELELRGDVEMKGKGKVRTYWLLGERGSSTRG

T2: rat NPRA (rat, UniProt P18910 29-1057)
T2 sequence (looked up): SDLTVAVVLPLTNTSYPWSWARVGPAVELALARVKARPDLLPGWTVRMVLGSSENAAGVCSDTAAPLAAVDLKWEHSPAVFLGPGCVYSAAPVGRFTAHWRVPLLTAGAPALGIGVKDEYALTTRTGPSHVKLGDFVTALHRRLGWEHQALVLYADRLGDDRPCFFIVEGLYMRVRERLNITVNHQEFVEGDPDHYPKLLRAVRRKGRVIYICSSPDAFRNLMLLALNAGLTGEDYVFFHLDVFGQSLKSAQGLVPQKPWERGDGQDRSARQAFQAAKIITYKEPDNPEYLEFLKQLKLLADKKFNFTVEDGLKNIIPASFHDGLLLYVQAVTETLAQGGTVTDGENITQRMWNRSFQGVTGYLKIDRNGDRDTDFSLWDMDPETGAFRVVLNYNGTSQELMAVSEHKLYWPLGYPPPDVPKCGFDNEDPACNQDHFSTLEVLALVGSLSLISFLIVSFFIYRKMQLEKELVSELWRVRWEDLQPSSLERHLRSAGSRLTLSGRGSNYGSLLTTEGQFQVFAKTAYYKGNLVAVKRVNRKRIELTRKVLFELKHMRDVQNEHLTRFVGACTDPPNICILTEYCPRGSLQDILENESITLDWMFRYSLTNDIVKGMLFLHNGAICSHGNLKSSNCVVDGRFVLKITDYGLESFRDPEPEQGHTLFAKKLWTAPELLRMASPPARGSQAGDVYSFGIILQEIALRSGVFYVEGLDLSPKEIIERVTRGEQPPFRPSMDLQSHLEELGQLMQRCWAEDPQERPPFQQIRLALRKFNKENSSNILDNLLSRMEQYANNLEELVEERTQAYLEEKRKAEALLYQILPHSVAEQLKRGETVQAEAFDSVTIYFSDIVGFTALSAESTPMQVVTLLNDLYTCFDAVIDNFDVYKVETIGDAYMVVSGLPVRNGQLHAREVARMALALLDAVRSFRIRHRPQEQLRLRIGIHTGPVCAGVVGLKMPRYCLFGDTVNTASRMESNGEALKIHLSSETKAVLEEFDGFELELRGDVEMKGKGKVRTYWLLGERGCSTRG

B1: Example 22 (peptide)
peptide: {C20 diacid}-[γGlu]EKEKEKGS[4Pal]RRSSCFGGRIDRIGAQSGLGCPSFRH-NH2
modifications: disulfide 15-31
SMILES: CC[C@H](C)[C@@H]1NC(=O)[C@H](CCCNC(=N)N)NC(=O)[C@H](CC(=O)O)NC(=O)[C@H]([C@@H](C)CC)NC(=O)[C@H](CCCNC(=N)N)NC(=O)CNC(=O)CNC(=O)[C@H](Cc2ccccc2)NC(=O)[C@@H](NC(=O)[C@H](CO)NC(=O)[C@H](CO)NC(=O)[C@H](CCCNC(=N)N)NC(=O)[C@H](CCCNC(=N)N)NC(=O)[C@H](Cc2ccncc2)NC(=O)[C@H](CO)NC(=O)CNC(=O)[C@H](CCCCN)NC(=O)[C@H](CCC(=O)O)NC(=O)[C@H](CCCCN)NC(=O)[C@H](CCC(=O)O)NC(=O)[C@H](CCCCN)NC(=O)[C@H](CCC(=O)O)NC(=O)CC[C@H](NC(=O)CCCCCCCCCCCCCCCCCCC(=O)O)C(=O)O)CSSC[C@@H](C(=O)N2CCC[C@H]2C(=O)N[C@@H](CO)C(=O)N[C@@H](Cc2ccccc2)C(=O)N[C@@H](CCCNC(=N)N)C(=O)N[C@@H](Cc2c[nH]cn2)C(N)=O)NC(=O)CNC(=O)[C@H](CC(C)C)NC(=O)CNC(=O)[C@H](CO)NC(=O)[C@H](CCC(N)=O)NC(=O)[C@H](C)NC(=O)CNC1=O
B2: Example 24 (peptide)
peptide: {C20 diacid}-[γGlu]EKEKEKGS[4Pal]RRSSCFGGRIDRIGHQSGLGCPSFR[4Pal]-NH2
modifications: disulfide 15-31
SMILES: CC[C@H](C)[C@@H]1NC(=O)[C@H](CCCNC(=N)N)NC(=O)[C@H](CC(=O)O)NC(=O)[C@H]([C@@H](C)CC)NC(=O)[C@H](CCCNC(=N)N)NC(=O)CNC(=O)CNC(=O)[C@H](Cc2ccccc2)NC(=O)[C@@H](NC(=O)[C@H](CO)NC(=O)[C@H](CO)NC(=O)[C@H](CCCNC(=N)N)NC(=O)[C@H](CCCNC(=N)N)NC(=O)[C@H](Cc2ccncc2)NC(=O)[C@H](CO)NC(=O)CNC(=O)[C@H](CCCCN)NC(=O)[C@H](CCC(=O)O)NC(=O)[C@H](CCCCN)NC(=O)[C@H](CCC(=O)O)NC(=O)[C@H](CCCCN)NC(=O)[C@H](CCC(=O)O)NC(=O)CC[C@H](NC(=O)CCCCCCCCCCCCCCCCCCC(=O)O)C(=O)O)CSSC[C@@H](C(=O)N2CCC[C@H]2C(=O)N[C@@H](CO)C(=O)N[C@@H](Cc2ccccc2)C(=O)N[C@@H](CCCNC(=N)N)C(=O)N[C@@H](Cc2ccncc2)C(N)=O)NC(=O)CNC(=O)[C@H](CC(C)C)NC(=O)CNC(=O)[C@H](CO)NC(=O)[C@H](CCC(N)=O)NC(=O)[C@H](Cc2c[nH]cn2)NC(=O)CNC1=O
B3: Example 37 (peptide)
peptide: XEKEKEKGSXRRSSCFGGRIDRIGHQSGLGCPSFRHGPSSGAPPPS
modifications: HOOC-(CH2)18-CO-(γGlu)-EKEKEKGS-4Pal-RRSS[CFGGRIDRIGHQSGLGC]PSFRH-GPSSGAPPPS-NH2; disulfide linkage between the bracketed Cys
B4: Example 30 (peptide)
peptide: XEKEKEKGSXKRSSCFGGKIDRIGHQSGLGCPSFRHGGPSSGAPPPS
modifications: HOOC-(CH2)18-CO-(γGlu)-EKEKEKGS-4Pal-KRSS[CFGGKIDRIGHQSGLGC]PSFRHGGPSSGAPPPS-NH2; disulfide linkage between the bracketed Cys
B5: Example 55 (peptide)
peptide: B4 peptide with S9E, X10K, K11P, K19R, Q26Y
modifications: HOOC-(CH2)18-CO-(γGlu)-EKEKEKGEKPRSS[CFGGRIDRIGHYSGLGC]PSFRHGGPSSGAPPPS-NH2; disulfide linkage between the bracketed Cys
B6: Example 31 (peptide)
peptide: B4 peptide with H25X
modifications: HOOC-(CH2)18-CO-(γGlu)-EKEKEKGS-4Pal-KRSS[CFGGKIDRIG-Dap-QSGLGC]PSFRHGGPSSGAPPPS-NH2; disulfide linkage between the bracketed Cys
B7: Example 57 (peptide)
peptide: B4 peptide with S9E, X10K, K11P, K19R, Q26Y
modifications: HOOC-(CH2)18-CO-(γGlu)-EKEKEKGEKPRSS[CFGGRIDRIGHYSGLGC]PSFRHGGPSSGAPPPS-NH2; thioacetal linkage between the bracketed Cys
B8: Example 38 (peptide)
peptide: B4 peptide with K11R, K19R, Q26Y
modifications: HOOC-(CH2)18-CO-(γGlu)-EKEKEKGS-4Pal-RRSS[CFGGRIDRIGHYSGLGC]PSFRHGGPSSGAPPPS-NH2; disulfide linkage between the bracketed Cys
B9: Example 5 (peptide)
peptide: XEKEKEKGEKPRSSCFGKRIDRIGHYSGLGCPSFRHGSPSSGAPPPS
modifications: HOOC-(CH2)18-CO-(γGlu)-EKEKEKGEKPRSS[CFGKRIDRIGHYSGLGC]PSFRHGSPSSGAPPPS-NH2; thioacetal linkage between the bracketed Cys
B10: rat ANP (amidated) (peptide)
peptide: SLRRSSCFGGRIDRIGAQSGLGCNSFRY-NH2
modifications: disulfide 7-23; N-terminus assumed
SMILES: CC[C@H](C)[C@@H]1NC(=O)[C@H](CCCNC(=N)N)NC(=O)[C@H](CC(=O)O)NC(=O)[C@H]([C@@H](C)CC)NC(=O)[C@H](CCCNC(=N)N)NC(=O)CNC(=O)CNC(=O)[C@H](Cc2ccccc2)NC(=O)[C@@H](NC(=O)[C@H](CO)NC(=O)[C@H](CO)NC(=O)[C@H](CCCNC(=N)N)NC(=O)[C@H](CCCNC(=N)N)NC(=O)[C@H](CC(C)C)NC(=O)[C@@H](N)CO)CSSC[C@@H](C(=O)N[C@@H](CC(N)=O)C(=O)N[C@@H](CO)C(=O)N[C@@H](Cc2ccccc2)C(=O)N[C@@H](CCCNC(=N)N)C(=O)N[C@@H](Cc2ccc(O)cc2)C(N)=O)NC(=O)CNC(=O)[C@H](CC(C)C)NC(=O)CNC(=O)[C@H](CO)NC(=O)[C@H](CCC(N)=O)NC(=O)[C@H](C)NC(=O)CNC1=O

Legend:
[1] = target: T1, human NPRA; experiment: cell-based or functional assay
[2] = target: T2, rat NPRA; experiment: cell-based or functional assay

Binder | cGMP Assay (EC50, pM) w/BSA [1] [pM] | cGMP Assay (EC50, pM) w/Casein [1] [pM] | cGMP Assay (EC50, pM) w/BSA [2] [pM] | cGMP Assay (EC50, pM) w/Casein [2] [pM]
B1 | 25100 | 840 | 192000 | 1690
{C20 diacid}-[γGlu]EKEKEKGS[4Pal]RRSSCFGGRIDRIGHQSGLGCPSFRHRITAREDKQGYA-NH2 (disulfide 15-31) [Example 25] | 12000 | 436 | 57300 | 654
{C20 diacid}-[γGlu]EKEKEKGS[4Pal]RRSSCFGGRIGRIGHQSGLGCPSFRHGGPSSGAPPPS-NH2 (disulfide 15-31) [Example 29] | 32200 | 482 | 1.91e+06 | 16800
B2 | 21000 | 560 | 66100 | 703
{C20 diacid}-[γGlu]EKEKEKGS[4Pal]KRSSCFGGKIDRIGHQSGLGCPSFRHKITAKEDE-NH2 (disulfide 15-31) [Example 34] | 26100 | 291 | 422000 | 1200
{C20 diacid}-[γGlu]EKEKEKGS[4Pal]KRSSCFGGKIDRIGHQSGLGCPSFRHGPSSGAPPPS-NH2 (disulfide 15-31) [Example 33] | 22200 | 199 | 112000 | 383
B3 | – | – | 84600 | –
B4 | – | – | – | 1130
B5 | – | – | – | 493
B6 | – | – | – | 12200
B7 | – | – | – | 9500
B8 | – | – | 40500 | –
{C20 diacid}-[γGlu]EKEKEKGS[4Pal]RRSSCFGGRIDRIGHQSGLGCPSFRHRITAREDKQGEA-NH2 (disulfide 15-31) [Example 26] | 17800 | 682 | 119000 | 803
B9 | – | – | 276000 | 1130
B10 | 138 | 128 | 114 | 73
